Tests used:
Settings in all cases: FMN input: 0 or 200 uM; Eterna round: R93 (includes R88 designs)
MS2 coat protein [1] = test: apparent KD of MS2 coat protein, switch ON state; designed switch direction (-1 OFF switch, 1 ON switch): 1; higher = weaker reporter binding
In short: (§1)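 Titrations with SNAP-549-labelled MS2 coat protein ran in twofold steps from 0.7 or 1.5 nM to 3 µM, each step taking 0.8–1.5 h at the start and 10–20 min toward the end. The targets were designed RNA switches transcribed on-chip from Illumina sequencing clusters, held in 100 mM Tris-HCl pH 7.5, 80 mM KCl, 4 mM MgCl2, without or with constant ligand. Apparent KD was taken per design as the median of normalised cluster binding-curve fits.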

MS2 coat protein [2] = test: apparent KD of MS2 coat protein, switch OFF state (with FMN for OFF switches, without FMN for ON switches); designed switch direction (-1 OFF switch, 1 ON switch): 1; higher = weaker reporter binding
In short: as §1

MS2 coat protein [3] = test: apparent KD of MS2 coat protein, switch ON state; designed switch direction (-1 OFF switch, 1 ON switch): -1; higher = weaker reporter binding
In short: as §1

MS2 coat protein [4] = test: apparent KD of MS2 coat protein, switch OFF state (with FMN for OFF switches, without FMN for ON switches); designed switch direction (-1 OFF switch, 1 ON switch): -1; higher = weaker reporter binding
In short: as §1

| Sequence | apparent KD of MS2 coat protein (MS2 coat protein [1]) | apparent KD of MS2 coat protein (MS2 coat protein [2]) | apparent KD of MS2 coat protein (MS2 coat protein [3]) | apparent KD of MS2 coat protein (MS2 coat protein [4]) |
| --- | --- | --- | --- | --- |
| AAAAAAAAAAGAGAGGAUAUCCAAAAAAAAACAUGAGGAUCACCCAUGUAAAAAAAAAAAAAAUGGGAGAAGGCUCAAAAAAAAAA [Helter Skelter 1] | 33.4 nM | 54.8 nM | – | – |
| AAAAAACAUGAGGAUCACCCAUGUAAAAAAAUGGGAGGAUAUACAAAAACGAAAGAAAAAGUAGAAGGCCUGAAAA [same state 7] | 37.7 nM | 159 nM | – | – |
| AAAAAACAUGAGGAUCACCCAUGUAAAAAUAUGGGAGGAUAUACAAACACGAAAGUGAAAGUAGAAGGCCUAAAAA [SS! MT 17] | 19 nM | 85.3 nM | – | – |
| AAAAAACAUGAGGAUCACCCAUGUCAAAAGACGUGAGGAUAUGUACAGACUUCGGUCUGUACAGAAGGCAUGUAAA [SS1 - 1053] | 21.3 nM | 144 nM | – | – |
| AGUUGGCGAGGAUAUACAUGAGGAUCACCCAUGUGGAAGAAAAAAGUGAGAAAGAAAAGUAGAAGGCGCUGACA [Mat - Exclusion 3 - Lego mod - D87] | – | – | 67.5 nM | 316 nM |
| AUAAAACAUGAGGAUCACCCAUGUGAGGAUAUCUGAAAAAAAAAAAGAAAAAAAAAAAAGAGAAGGCACAAUAA [Amethyst 44] | – | – | 65.1 nM | 79.4 nM |
| AUAAAACAUGAGGAUCACCCAUGUGAGGAUAUGCGAAAUAAAGAAAUAAAUAAAUAAAGCAGAAGGCACAAUAA [Ex 1 Tesla 1] | – | – | 34.6 nM | 21.9 nM |
| AUAAAGUGAGGAUAUGCUAAGAAGUAAAUAGACAAAUAAAUGCAGAAGGCACAUGAGGAUCACCCAUGUAAGAA [Ex 4 Tesla 4] | – | – | 35.9 nM | 26.2 nM |
| AUCUACCUAGGAUAUACAUGAGGAUCACCCAUGUACAGUUUCAACUAGGGAAACUCACGUAGAAGGAGGUAGAU [JR_Exc003_Sub1209] | – | – | 48.2 nM | 25.2 nM |
| AUGGUACAUGAGGAUCACCCAUGUCAGGAUAUCGGCUAAAACGUAAAAAAAAUAAAAGCGAGAAGGGACUGCUC [EX1 Malc#18 Mod 8 - Jieux - Exclusion 1] | – | – | 24 nM | 28.3 nM |
| CAAAAGGAAGGAUAUACAUAAUAAAACGGGCGGGCACCUUAACAUGAGGAUCACCCAUGUAGAAGGUCCAAUAC [Onesmabe] | – | – | 15.7 nM | 18.6 nM |
| CAGAGACAUGAGGAUCACCCAUGUUAGGAUAUGCGUGUAUGCUAAAAAAAGUUAACAAGCAGAAGGAACAGAGG [JR_Exc001_Sub309] | – | – | 24.3 nM | 64.2 nM |
| CAGGUAUGAGGAUAUACAUAGAUACAGACACAUGUUCAAGUACAUGAGGAUCACCCAUGUAGAAGGCAUAUAUG [Mat - Same state - Mayanna Mod - D106] | – | – | 22.3 nM | 35.1 nM |
| CCGAGGCGAGGAUAUAUGAAGGACACAACAUUUAGGGUAAGACAUGAGGAUCACCCAUGUAGAAGGCGCGACGC [Ex2_Neo] | – | – | 74.5 nM | 38.7 nM |
| CCUAAGAAAGGAUAUACACCGGUGAACCGCUGAAAUCAGCAACAUGAGGAUCACCCAUGUAGAAGGUUUAUGGG [Erusqu] | – | – | 237 nM | 133 nM |
| CCUACGUGAGGAUAUGCGGAUAACACGUUAGACAAAUAGACGCAGAAGGCACAUGAGGAUCACCCAUGUGAACC [JR_Exc004_Sub317] | – | – | 21.9 nM | 17.6 nM |
| CCUCGACAUGAGGAUCACCCAUGUUAGGAUAUAUACAAACCCGAAAACCAAGGGCAAAAUAGAAGGAACGUGCA [Masoedma] | – | – | 14.8 nM | 19.2 nM |
| CUCAAGUUAGGAUAUACAAGAAAAGAAGAGAAAGAAAAGAAGUAGAAGGAACAUGAGGAUCACCCAUGUAAGAA [EteRNA is fun!] | – | – | 33.2 nM | 25.7 nM |
| CUCAUGUAAGGAUAUGACUACAUAAAAAAAAAAAAAUGUAGUCAGAAGGUACAUGAGGAUCACCCAUGUACAAA [Brourd - Exclusion 4 - Sub 3] | – | – | 59 nM | 25.2 nM |
| CUCAUGUCAGGAUAUGUAGCAUGAUACGAAAGUAUCAUGCUACAGAAGGGACAUGAGGAUCACCCAUGUCAAAA [Ex4: 943] | – | – | 22.1 nM | 17.5 nM |
| CUCAUGUCAGGAUAUGUCAAAAGUCACAAAAGUGACAAAAGACAGAAGGGACAUGAGGAUCACCCAUGUAAAAA [Starry Exclusion 4.6 (starryjess round 1 mod)] | – | – | 20.6 nM | 15.5 nM |
| CUCAUGUUAGGAUAUAAAUGAAAUGAAGUGAAAGAAAAGAAUUAGAAGGAACAUGAGGAUCACCCAUGUUAGAA [EteRNA is fun!] | – | – | 47.8 nM | 37.6 nM |

| Sequence | apparent KD of MS2 coat protein (MS2 coat protein [1]) | apparent KD of MS2 coat protein (MS2 coat protein [2]) | apparent KD of MS2 coat protein (MS2 coat protein [3]) | apparent KD of MS2 coat protein (MS2 coat protein [4]) |
| --- | --- | --- | --- | --- |
| CUCUUGUCAGGAUAUCAAAGAAAAGAAGAGAAAGAAAAGAAUGAGAAGGGACAUGAGGAUCACCCAUGUAAGAA [EteRNA is fun!] | – | – | 48.1 nM | 51.7 nM |
| GAAAAACAUGAGGAUCACCCAUGUAAGGAUAUGCGAAAAUAAAAUAAAAUAAAAUAAAGCAGAAGGUACAAAAG [Mat - Exclusion 1 - Eli mod - D2] | – | – | 34.7 nM | 58.4 nM |
| GAAAAACAUGAGGAUCACCCAUGUUAGGAUAUGCUAUGGAAAAAUAAAAUAAAACAUAGCAGAAGGGACAAAAG [Mat - Exclusion 1 - Eli mod - D29] | – | – | 24.7 nM | 88.5 nM |
| GAAAAAGGAGGAUAUACGAACAUGUCAAAAGACGUGAAGGGACAUGAGGAUCACCCAUGUAGAAGGCUUAAAAG [Mat - Exclusion 2 - JL mod - D94] | – | – | 37.4 nM | 15.7 nM |
| GAAAACCUAGGAUAUACAUGAGGAUCACCCAUGUCAGUAGACUGGGAAAGGUCUCUCAGUAGAAGGAGGACCCG [Zaered] | – | – | 509 nM | 437 nM |
| GAAAAGUCAGGAUAUACAGAAAAAAAAACGAAAAAAAAUCUGUAGAAGGGACAUGAGGAUCACCCAUGUUAAAG [Mat - Exclusion 4 - Mayanna - D126] | – | – | 38 nM | 23.6 nM |
| GAAAAGUCAGGAUAUAUAGGAAAAAUAAAAAAAAUAAAACUAUAGAAGGGACAUGAGGAUCACCCAUGUUAAAA [Mat - Exclusion 4 - Mayanna - D131] | – | – | 43.9 nM | 24.7 nM |
| GAAAAGUGAGGAUAUACAUGAGGAUCACCCAUGUGUAUAAAAAAUUACACAAAAGAAAGUAGAAGGCACUAAAA [Mat - Exclusion 3 - Mayanna mod - D114] | – | – | 17.8 nM | 28.1 nM |
| GACGAGUGAGGAUAUGUAAAAAAAAGAGAAGAGAAGAGAGAACAGAAGGCACAUGAGGAUCACCCAUGUAGGGA [Default title] | – | – | 114 nM | 71 nM |
| GAGAAGUUAGGAUAUGCGGAGGGAAGGAAGGAAAGGGAAGGGCAGAAGGAACAUGAGGAUCACCCAUGUAAGAG [salish99-ex4-02] | – | – | 35.9 nM | 25.3 nM |
| GAGAGCCGAGGAUAUACAUGAGGAUCACCCAUGUAAAAAAAAAAAAAAAAAAAAUCAUGUAGAAGGCGGCUUUC [hsl_exclusion3] | – | – | 234 nM | 28.9 nM |
| GCUUGUCAAGGAUAUACAUGAGGAUCACCCAUGUGAGAGAAAAAAGUGAGAAAGAAAAGUAGAAGGUGGUGAGG [salish99-ex3-78] | – | – | 33.3 nM | 46.6 nM |
| GCUUUGCAAGGAUAUACAUGAGGAUCACCCAUGUGAGAGAAAAAAGUGAGAAAGAAAAGUAGAAGGUGCGGAGG [salish99-ex3-120] | – | – | 34.2 nM | 44 nM |
| GGAUGUCAAGGAUAUACAUGAGGAUCACCCAUGUGAGAGAAAAAAGUGAGAAAGAAAAGUAGAAGGUGGUGUCG [salish99-ex3-87] | – | – | 38.5 nM | 56.1 nM |
| GGGCCACAUGAGGAUCACCCAUGUAAGGAUAUGCUAGGGAUGGAAACCAUUACGCAAAGCAGAAGGUACUAAAG [Janelle Amethyst 18 Mod 10 - Jieux - Exclusion 1] | – | – | 26.6 nM | 28.2 nM |
| GGUUGGCGAGGAUAUACAUGAGGAUCACCCAUGUGAGAGAAAAAAGUGAGAAAGAACAGUAGAAGGCGCUGACG [salish99-ex3-29] | – | – | 23.4 nM | 72.8 nM |
| GUGUACAGAGGAUAUACUAAAGCAUGGAAACAUGCAAGAUCACAUGAGGAUCACCCAUGUAGAAGGCUGUACAC [Ex2: 741] | – | – | 62.3 nM | 529 nM |
| UACGUAUGAGGAUAUACAAACAGAAAAAUCAGACAUAACAGACAUGAGGAUCACCCAUGUAGAAGGCAUAUACA [JR_Exc002_Sub903] | – | – | 20.1 nM | 15.3 nM |
| UAGGUACGAGGAUAUACAUAGAUACAGACACAUGUAGAUGUACAUGAGGAUCACCCAUGUAGAAGGCGUAUAUA [Mat - Same state - Mayanna Mod - D110] | – | – | 52.6 nM | 142 nM |
| UAUAACCAAGGAUAUACUAACGAAACUAAUGCAUAUAUAUAACAUGAGGAUCACCCAUGUAGAAGGUGGAGAAU [JR_Exc002_Sub012] | – | – | 60.5 nM | 50.2 nM |
| UAUAGACAUGAGGAUCACCCAUGUGAGGAUAUCGGUAACUACAAAACAUCACAUACAACGAGAAGGCACAGAAA [JR_Exc001_Sub013] | – | – | 41.5 nM | 35.1 nM |
